Test results taken from the supplement of paper PMC9170038.

Test system: MS2 coat protein
Assay: apparent KD of MS2 coat protein; designed switch direction (-1 OFF switch, 1 ON switch): -1; higher = weaker reporter binding
Method in brief: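 Normalised cluster fluorescence was curve-fitted, and each design's median over clusters is its apparent KD. Before this, SNAP-549-labelled MS2 coat protein was titrated from 0.7 or 1.5 nM, doubling to 3 µM, over RNA switches transcribed on Illumina chips by stalled E. coli RNA polymerase. Titrations had no input, 200 uM small-molecule ligand, or an oligonucleotide input, and steps lasted 0.8–1.5 h (lowest) to 10–20 min (highest).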

[1] = input ligand: microRNA oligo, concentration not stated
[2] = Eterna round: R95, input ligand: microRNA oligo, concentration not stated
[3] = Eterna round: R95, input ligand: FMN 200 uM
[4] = Eterna round: R95, input ligand: none

Sequence	apparent KD of MS2 coat protein (input ligand: FMN 200 uM) [nM]	apparent KD of MS2 coat protein [1] [nM]	apparent KD of MS2 coat protein (input ligand: none) [nM]	apparent KD of MS2 coat protein [2] [nM]	further results
UUUAUAUAGUAAGGAUAUGUAUUAUUGUUAUCAACAGAAGGUACUGACAUGAGGAUCACCCAUGUUUUAGUGUGGGCAUGUAGU [JMF's solution 96] (Eterna round: R96, puzzle: Exclusion NG 1)	425	277	446		
UUUAUAUAUGAAGGAUAUACUUAACAUGAGGAUCACCCAUGUGGUGUUGUGAGUGAGUGAGUUUAGUAGAAGGUCAAGUAUUUU [JMF's solution 49] (Eterna round: R96, puzzle: Exclusion NG 2)	719	177	198		
UUUAUGUAAGGAUAUAUGAGUCACGGAAAUAAACCGUGAAGAUAGAAGGUACAUGAGGAUCACCCAUGUAAGGC [Mod of Anonveat 8 - Jieux - Exclusion 4] (Eterna round: R97, puzzle: Exclusion 4)	40.1		22.9		
UUUAUGUCAGGAUAUACAUGAGGAUCACCCAUGUAUAUCUUAAAGUAUACAUGGGAAUGUAGAAGGGACCUCCU [Omei Ex3 Pseudoloop 5] (Eterna round: R97, puzzle: Exclusion 3)	43.8		35		
UUUAUGUCAGGAUAUGAUUAGAUCUACUUUUGUAGAUCUAAUCAGAAGGGACAUGAGGAUCACCCAUGUAGUUU [Ex4 - 3 - 14] (puzzle: Exclusion 4)				116	
UUUAUUAAUUAAUAUAAUAAGAUCACAUGAGGAUCACCCAUGUAGGAUAUCAGCUCGUUUAGAGCUGAGAAGGACAUAAUUAUA [ExNG3/1-B2] (Eterna round: R96, puzzle: Exclusion NG 3)	135	33.6	35.9		
UUUCAGCUAGGAUAUGCCCUGAUGCACAUGAGGAUCACCCAUGUCGGCUUGUGUAUGAGCGCAGAAGGAGCGAAAA [EX5 C.17] (Eterna round: R97, puzzle: Exclusion 5)	783		268		
UUUCUCUGGGCGUCUUCUUACAUGAGGAUCACCCAUGUUUCAUAGGAUAUGCUAUAGUGUUACAUGCAGAAGGAUGUUUGUUUU [JR_ExcNG3_Sub080] (Eterna round: R96, puzzle: Exclusion NG 3)		189			
UUUGAAUAGGUAGGAUAUACAUACAUUCCUACAUUACUAACAUGAGGAUCACCCAUGUAUACAUUGUAGAAGGACCAGAUUGAU [JR_ExcNG2_Sub039] (Eterna round: R96, puzzle: Exclusion NG 2)		18.8			
UUUGAUAGCACAGGAUAUUGUCAUUUGAGUUGUCAAGAAGGGUGUACAUGAGGAUCACCCAUGUAAUGGUUGCCUCGCUGACUU [JR_ExcNG1_Sub007] (Eterna round: R96, puzzle: Exclusion NG 1)		105			
UUUGAUUGCACAGGAUAUUGUCAUUUGAGUUGUCAAGAAGGGUGUACAUGAGGAUCACCCAUGUUAUGCUUUCCUCGCUCACUU [JR_ExcNG1_Sub009] (Eterna round: R96, puzzle: Exclusion NG 1)	15.5	12.8	20		
UUUGCAAGCUUUAGAUCCCACAUGAGGAUCACCCAUGUUGCUGCCGUGAGGUAGCUUUUAACUAAUGCUCGUCUUAU [JL TOV1 3.45] (Eterna round: R97, puzzle: Sensor, turn-off variant 1)	88.2		163		
UUUGUUUAUGUAGGAUAUGCCUGGCGUGCCUUUGCAGAAGGACAUGAGGAUCACCCAUGUAUUGCGGUCUGCGUUCAGAUCGCC [salish99_ExNG1_r4_036] (Eterna round: R96, puzzle: Exclusion NG 1)	29.6	17.4	23		
UUUGUUUUGCAAGGAUAUGUUUAAUUUUAGUUUCCUUACACAUGAGGAUCACCCAUGUUAUACUUACAGAAGGUGCGUAAUUUG [Excl-NG2-LRO03] (Eterna round: R96, puzzle: Exclusion NG 2)		122			
UUUGUUUUGGUAGGAUAUACUUUUAUUUUCUCUUUCCUUACAUGAGGAUCACCCAUGUUUACAUUGUAGAAGGACCACUUUGUU [JR_ExcNG2_Sub051] (Eterna round: R96, puzzle: Exclusion NG 2)		15.5			
UUUUAACAUGAGGAUCACCCAUGUCAGGAUAUGGUUUUUUUUUUUUUUUUUUUUUUUUCCAGAAGGGACAUUUU [My solution] (puzzle: Exclusion 1)				5.77	apparent KD of MS2 coat protein [3]: 42.5 nM; apparent KD of MS2 coat protein [4]: 3.88 nM
UUUUAACAUGAGGAUCACCCAUGUGAGGAUAUCGAAAUUUAUAUUAAUAUUAAUAAAUCGAGAAGGCACAUUUU [JMF 20] (puzzle: Exclusion 1)				109	
UUUUAACAUGAGGAUCACCCAUGUGAGGAUAUCGAAAUUUAUAUUAAUAUUAUUUAUUCGAGAAGGCACAUUUU [JMF 45] (puzzle: Exclusion 1)				118	
UUUUAACAUGAGGAUCACCCAUGUGAGGAUAUCGAAAUUUAUAUUAAUAUUUAUAAUACGAGAAGGCACAUUUU [JMF 54] (puzzle: Exclusion 1)				84.4	

Sequence	apparent KD of MS2 coat protein (input ligand: FMN 200 uM) [nM]	apparent KD of MS2 coat protein [1] [nM]	apparent KD of MS2 coat protein (input ligand: none) [nM]	apparent KD of MS2 coat protein [2] [nM]	further results
UUUUAACAUGAGGAUCACCCAUGUGAGGAUAUCGAAAUUUAUAUUAAUAUUUAUAUAACGAGAAGGCACAUUUU [JMF 55] (puzzle: Exclusion 1)				65.3	
UUUUAACAUGAGGAUCACCCAUGUGAGGAUAUCGAAAUUUAUAUUAAUAUUUAUAUUACGAGAAGGCACAUUUU [JMF 58] (Eterna round: R96, puzzle: Exclusion 1)	103	55.3	62.9		
UUUUAACAUGAGGAUCACCCAUGUGAGGAUAUCGAAAUUUAUAUUAAUAUUUAUAUUACGAGAAGGCACAUUUU [JMF 58] (puzzle: Exclusion 1)				75.9	
UUUUAACAUGAGGAUCACCCAUGUGAGGAUAUCGAAAUUUAUAUUUAUAUUUAUAAAACGAGAAGGCACAUUUU [JMF 91] (puzzle: Exclusion 1)				113	
UUUUAACAUGAGGAUCACCCAUGUGAGGAUAUCGAAAUUUAUAUUUAUAUUUAUAAAUCGAGAAGGCACAUUUU [JMF 92] (puzzle: Exclusion 1)				111	
UUUUAACAUGAGGAUCACCCAUGUGAGGAUAUCGAAAUUUAUAUUUAUAUUUAUAAUACGAGAAGGCACAUUUU [JMF 94] (puzzle: Exclusion 1)				82.3	
UUUUAACAUGAGGAUCACCCAUGUGAGGAUAUCGAAAUUUAUAUUUAUAUUUAUUAAACGAGAAGGCACAUUUU [JMF 99] (puzzle: Exclusion 1)				66.9	
UUUUAACAUGAGGAUCACCCAUGUGAGGAUAUCGAAUUUUUUAUUAAUAUUAAUAAAACGAGAAGGCACAUUUU [JMF 16] (puzzle: Exclusion 1)				55.2	
UUUUAACAUGAGGAUCACCCAUGUGAGGAUAUCGUAAUUUUUAUUAAUAUUAAUAAAACGAGAAGGCACAUUUU [JMF 13] (puzzle: Exclusion 1)				66.8	
UUUUAACAUGAGGAUCACCCAUGUGAGGAUAUCGUAUUUUUUUUUUUUUUUUUUUUUUCGAGAAGGCACAUUUU [My solution] (puzzle: Exclusion 1)				6.56	apparent KD of MS2 coat protein [3]: 1.24 nM; apparent KD of MS2 coat protein [4]: 16.5 nM
UUUUAACAUGAGGAUCACCCAUGUGAGGAUAUGGUAUUUUUUUUUUUUUUUUUUUUUUCCAGAAGGCACAUUUU [My solution] (puzzle: Exclusion 1)				35.1	apparent KD of MS2 coat protein [3]: 38.4 nM; apparent KD of MS2 coat protein [4]: 74.9 nM
UUUUAACAUGAGGAUCACCCAUGUGAGGAUAUGGUUUUUUUUUUUUUUUUUUUUUUUUCCAGAAGGCACAUUUU [My solution] (Eterna round: R96, puzzle: Exclusion 1)	269	44.2	31.6		
UUUUAACAUGAGGAUCACCCAUGUGAGGAUAUGGUUUUUUUUUUUUUUUUUUUUUUUUCCAGAAGGCACAUUUU [My solution] (puzzle: Exclusion 1)				13.7	apparent KD of MS2 coat protein [3]: 25.4 nM; apparent KD of MS2 coat protein [4]: 119 nM
UUUUACAAGCUAAGAUCCUACAUGAGGAUCACCCAUGUGGUCCGGUGACGUGAGUCACCGGACUUAGCUCGUCUUGU [JL TOV1 3.70] (Eterna round: R97, puzzle: Sensor, turn-off variant 1)	80.3		88.2		
UUUUACAAGCUUAGAUCCUACAUGAGGAUCACCCAUGUGGUCCGGUGACGUGAGUCACCGGACUAAGCUCGUCUUGU [JL TOV1 3.71] (Eterna round: R97, puzzle: Sensor, turn-off variant 1)	124		114		
UUUUACAGGCUUAGAUCCUACAUGAGGAUCACCCAUGUGGUGGCGUGUCGUGAGACAUGCCACUAAGCUCGUCUUGU [JL TOV1 3.73] (Eterna round: R97, puzzle: Sensor, turn-off variant 1)	98.3		103		
UUUUACAUCUAUGGGAGUGACAUGAGGAUCACCCAUGUAUGUCUUGUUUUUUGUUCGUCUAGGACUUUCUGAUCAGU [JR_SV3TOV1_Sub033] (puzzle: Sensor v3, turn-off variant 1)				222	apparent KD of MS2 coat protein [3]: 565 nM; apparent KD of MS2 coat protein [4]: 730 nM
UUUUACAUGCUGAGAUCCUACAUGAGGAUCACCCAUGUGGUCCGGAAAAUUUUGUCACCGGAUUUUGCUCGUCUUGU [salish99_S_TOV1_R5_102] (Eterna round: R97, puzzle: Sensor, turn-off variant 1)	69.5		112		
UUUUACCUAGGAUAUACAUUUUUUUUAUUAUUUUCAUUAUAACAUGAGGAUCACCCAUGUAGAAGGAGGAUUUU [My Design] (puzzle: Exclusion 2)				34.7	
